Here are results for 29 molecules from patent US20220259593A1, “CONTROL OF MAMMALIAN GENE DOSAGE USING CRISPR” (The Regents of the University of California, priority 2019, published 2022).

The series concerns K562 CRISPRi cells. In words: Constant region variant library pooled growth screen, K562. It counts as cell-based, human. As to conditions: sgRNA constant region variants. An outline of the steps: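 Relative activity expresses each targeting sequence:constant region pair's phenotype over that of the unmodified constant region. Pooled growth screen ran in K562 CRISPRi cells in duplicate spinner-flask replicates, with puromycin selection and 4–8 days' growth at >2000× coverage; library paired variants with 36 targeting sequences.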

[1] abbreviates: activity relative to the unmodified constant region cr995.
Setting [2] is: activity relative to the original, un-modified constant region cr995.

B1: cr221 (nucleic acid)
guide: GTTTAAGAGCTAAGCTGGAAACAGCATAGCAAATTTAAATAAGGCTAGTCCGTTATGAACTTGAGAAAGTGGCACCGAGTCGGTGCT
modifications: listed as DNA, chemistry not fully specified
Turning to B1, the Mean relative activity under setting [1] is on record as 0.1553.

B2: cr881 (nucleic acid)
guide: GTTTAAGAGCTAAGCTGGAAACAGCATAGCAAGTTTAAATAAGGCTAGTCCTTTAACAACTTGAAAAAGTGGCACCGAGTCGGTGCT
modifications: listed as DNA, chemistry not fully specified
Take B2: the Mean relative activity under setting [1] was found to be 0.1367.

B3: cr761 (nucleic acid)
guide: GTTTAAGAGCTAAGCTGGAAACAGCATAGCTAGTTTAAATAAGGCTAGTCCGTTGTCTACTTGAAAAAGTGGCACCGAGTCGGTGCT
modifications: listed as DNA, chemistry not fully specified
Under setting [1], B3 showed a Mean relative activity of 0.1369.

B4: cr560 (nucleic acid)
guide: GTTTAAGAGCTAAGCTGGAAACAGCATAGCAAGCTTAAATAAGGCTAGTCCGTTATCAACTTGAAAAAGTGGCACTGAGTCAGTGCT
modifications: listed as DNA, chemistry not fully specified
As for B4, under setting [1], the Mean relative activity turned out to be 0.1347.

B5: cr872 (nucleic acid)
guide: GTTTAAGAGCTAAGCTGGAAACAGCATAGCAAGTTTAAATAAGGCTATTCCGTTATCAACTTGAAAAAGTGGCACCGAGTCGGTGCT
modifications: listed as DNA, chemistry not fully specified
Under setting [1], B5 yielded a Mean relative activity of 0.1317.

B6: cr502 (nucleic acid)
guide: GTTTAAGAGCTAAGCTGGAAACAGCATAGCAAGTTTAAATAAGGCTAGTCCGTTATCAACTTGAAAAAGTGGCACCGAGTCGCTGCT
modifications: listed as DNA, chemistry not fully specified
In turn, B6 registered a Mean relative activity under setting [1] of 0.1485.

B7: cr288 (nucleic acid)
guide: GTTTAAGAGCTAAGCTGGAAACAGCATAGCAACTTTAAATAAGGCTAGTCCGTTATCAACTGGAAACAGTGGCACCGAGTCGGTGCT
modifications: listed as DNA, chemistry not fully specified
Under setting [2], B7 returned a Mean relative activity of 0.1016.

B8: cr691 (nucleic acid)
guide: GTTTAAGAGCTAAGCTGGAAACAGCATAGCAAGTTTAAATAAGGCTAGTCCGTTATCAACTTGAAAAAGTGGGCCCGAGTCGGGCCT
modifications: listed as DNA, chemistry not fully specified
For the molecule B8, the Mean relative activity under setting [2] came out at 1.038.

B9: cr075 (nucleic acid)
guide: GTTTCATAGCTAAGCTGGAAACAGCATAGCAAGTTTAAATAAGGCTAGTCCGTTATCAACTTGAAAAAGTGGCACCGAGTCGGTGCT
modifications: listed as DNA, chemistry not fully specified
As for B9, the Mean relative activity under setting [1] is reported as 0.1521.

B10: cr229 (nucleic acid)
guide: GTTTAAGAGCTAAGCTGGAAACAGCATAGCAAGTTTAAATACGGCTAGTCCGTTATCAACTTGAAAAAGTGGCACCGAGTCGGTGCT
modifications: listed as DNA, chemistry not fully specified
For B10, under setting [1], the Mean relative activity came out at 0.1478.

B11: cr808 (nucleic acid)
guide: GTTTAAGAGCTAAGCTGGAAACAGCATAGCAAGTTTAAATAAAGCTAGTCTGTTATCAAATTGAAAAATTGTCACCGAGTCGGTGAT
modifications: listed as DNA, chemistry not fully specified
The molecule B11 displayed a Mean relative activity under setting [1] of 0.1417.

B12: cr580 (nucleic acid)
guide: GTTTAAGAGCTAAGCTGGAAACAGCATAGCAAGTTTAGATAAGGCTAGTCCGTTATCAACTTGAAAAAGTGGCACCGAGTCGGTGCT
modifications: listed as DNA, chemistry not fully specified
On to B12, for which the Mean relative activity under setting [2] is listed as 0.1076.

B13: cr395 (nucleic acid)
guide: GTTTAAGAGCTAAGCTGGAAACAGCATAGCAAGTTTAAATATGGCTAGTCCGTTATCAACTTGAAAAAGTAGCACCGAATCGGTGCT
modifications: listed as DNA, chemistry not fully specified
The molecule B13 registered a Mean relative activity under setting [1] of 0.1397.

B14: cr821 (nucleic acid)
guide: GTTTAAGAGCTAAGCTGGAAACAGCGTAGCAAGTTTAAATAAGGCTAGTCCGTTATCAACTTGAAAAAGTGGCACCGAGTCGGTGCT
modifications: listed as DNA, chemistry not fully specified
Turning to B14, under setting [2], the Mean relative activity came out at 1.038.

B15: cr538 (nucleic acid)
guide: GTTTAAGAGCTAAGCTGGAAACAGCATAGCAAGCTTAAATAAGACTAGTTCGTTATCAACTTGAAAAAGTGGCACCGAGTCGGTGCT
modifications: listed as DNA, chemistry not fully specified
In the case of B15, under setting [2], the Mean relative activity is 0.1104.

B16: cr290 (nucleic acid)
guide: GTTTAAGAGCTAAGCTGGAAACAGCATAGCAAGTTTAAATAAGGCTAGTCCATTATCAACTTGAAAAAGTTGCACCGAGTCGGTGCT
modifications: listed as DNA, chemistry not fully specified
As for B16, the Mean relative activity under setting [2] is recorded as 0.1027.

B17: cr089 (nucleic acid)
guide: GTTTATAAGCTAAGCTGGAAACAGCATAGCAAGTTTAAATAAGGCTAGTCCGTTATCAACTTGAAAAAGTGGCACCGAGTCGGTGCT
modifications: listed as DNA, chemistry not fully specified
With B17, under setting [1], the Mean relative activity is 0.1183.

B18: cr259 (nucleic acid)
guide: GTTTAAGAGCTAAGCTGGAAACAGCATAGCAAGTTTAAATAAGGCTAGTCCGTTATGTACTTCAAAAAGTGGCACCGAGTCGGTGCT
modifications: listed as DNA, chemistry not fully specified
B18 registered a Mean relative activity under setting [1] of 0.1243.

B19: cr274 (nucleic acid)
guide: GTTTAAGAGCTAAGCTGGAAACAGCATAGCAACTTTAAATAAGGCTAGTCCGTTATCAACCTGAAAAGGTGGCACCGAGTCGGTGCT
modifications: listed as DNA, chemistry not fully specified
Under setting [1], B19 returned a Mean relative activity of 0.1303.

B20: cr091 (nucleic acid)
guide: GTTTTACAGCTAAGCTGGAAACAGCATAGCAAGTTTAAATAAGGCTAGTCCGTTATCAACTTGAAAAAGTGGCACCGAGTCGGTGCT
modifications: listed as DNA, chemistry not fully specified
On to B20, for which the Mean relative activity under setting [1] turned out to be 0.1366.

B21: cr461 (nucleic acid)
guide: GTTTAAGAGCTAAGCTGGAAACAGCATAGCAAGTTTAAATAAGGCTAGTCCTTAATCAACTTGAAGAAGTGGCACCGAGTCGGTGCT
modifications: listed as DNA, chemistry not fully specified
B21 returned a Mean relative activity under setting [1] of 0.1147.

B22: cr798 (nucleic acid)
guide: GTTTAAGAGCTAAGCTGGAAACAGCATAGCAAGTTTAAATAAGGATATTCCGTTATCAACTTGAAAAAGTGGCATCCAGTGGATGCT
modifications: listed as DNA, chemistry not fully specified
The molecule B22 displayed a Mean relative activity under setting [1] of 0.1361.

B23: cr059 (nucleic acid)
guide: GGTTAAAAGCTAAGCTGGAAACAGCATAGCAAGTTTAAATAAGGCTAGTCCGTTATCAACTTGAAAAAGTGGCACCGAGTCGGTGCT
modifications: listed as DNA, chemistry not fully specified
For B23, the Mean relative activity under setting [1] is reported as 0.1106.

B24: cr257 (nucleic acid)
guide: GTTTAAGAGCTAAGCTGGAAACAGCATAGCAAGTTTAAATCAGGCTAGTCCGTTATCAACTTGAAAAAGTTGCACCGAGTCGGTGCT
modifications: listed as DNA, chemistry not fully specified
For the molecule B24, the Mean relative activity under setting [1] came to 0.1109.

B25: cr390 (nucleic acid)
guide: GTTTAAGAGCTAAGCTGGAAACAGCATAGCAAATTTAAATAAGGCTAGTCCGTTATCAACTTGAAAAAGTAGCACCGAGTCGGTGCT
modifications: listed as DNA, chemistry not fully specified
Under setting [1], B25 yielded a Mean relative activity of 0.1354.

B26: cr411 (nucleic acid)
guide: GTTTAAGAGCTAAGCTGGAAACAGCATAGCAAGTTTAAATAAGACTAGTCCGTTATCAACTTGAAAAAGTGGCACCGAGTCGGTGCT
modifications: listed as DNA, chemistry not fully specified
The molecule B26 had a Mean relative activity under setting [2] of 0.1086.

B27: cr087 (nucleic acid)
guide: CTTTGAGAGCTAAGCTGGAAACAGCATAGCAAGTTTAAATAAGGCTAGTCCGTTATCAACTTGAAAAAGTGGCACCGAGTCGGTGCT
modifications: listed as DNA, chemistry not fully specified
B27 showed a Mean relative activity under setting [2] of 0.1041.

B28: cr228 (nucleic acid)
guide: GTTTAAGAGCTAAGCTGGAAACAGCATAGCAAGTTTAAATAAGGGTAGTCCGTTATCAACTTGAAAAAGTGGCACCGAGTCGGTGCT
modifications: listed as DNA, chemistry not fully specified
B28 displayed a Mean relative activity under setting [1] of 0.1424.

B29: cr490 (nucleic acid)
guide: GTTTAAGAGCTAAGCTGGAAACAGCATAGCAAGTTTAAATAAGGCTAGTCCGTTATCAAATTGAAAAATTGGCGCCCAGTGGGCGCT
modifications: listed as DNA, chemistry not fully specified
As for B29, the Mean relative activity under setting [1] was 0.1317.
